We go through two molecules from US20210277118A1 (Daiichi Sankyo, published 2021).

Assay [1] deals with T1, Recombinant CD3epsilon/delta Fc fusion protein (Sino Biological) (human, UniProt P07766 23-126; P04234 22-105).
T1 construct: Bought reagent; also called recombinant CD3 fusion protein; human CD3 antigen; not shown: Fc of the bought fusion protein; not described
Kind of assay: SPR (ProteOn XPR36), Equilibrium Fit, mean of three runs. As to the method: (§1) All SPR binding experiments were carried out using a BioRad ProteOn XPR36 instrument (Bio-Rad Laboratories, Hercules, Calif.) at 25° C. with 10 mM HEPES, 150 mM NaCl, 3.4 mM EDTA, and 0.05% Tween 20 at pH 7.4. Recombinant CD3epsilon/delta Fc fusion protein (Sino Biological, Wayne, Pa.) was captured on anti-Fc capture sensorchips. Purified antibodies were indirectly captured on the sensorchip by binding the recombinant CD3 fusion protein when injected at 25 μL/min for 240s (resulting in approx. 500 RUs) following a buffer injection to establish a stable baseline. Resultant KD values were determined from binding isotherms using the Equilibrium Fit model with reported values as the mean of three independent runs.

In assay [2] the target is T1, Recombinant CD3epsilon/delta Fc fusion …. Briefly: SPR (ProteOn XPR36), CD3epsilon/delta Fc fusion captured on anti-Fc chip, variant injected for 240 s; kinetic constants printed above the sensorgrams. As to the method: as §1
The target in assay [3] is T2, human CD3 expressed on T cells (Jurkat cells, human pan T cells/PBMC) (human, UniProt P07766 23-207).
T2 construct: whole, on cells; On T cells CD3 epsilon stands in the CD3 complex with the gamma, delta and zeta chains and the T-cell receptor; only the epsilon chain is written out; also called CD3+ Jurkat cells; human T cells
T2 sequence (P07766 23-207): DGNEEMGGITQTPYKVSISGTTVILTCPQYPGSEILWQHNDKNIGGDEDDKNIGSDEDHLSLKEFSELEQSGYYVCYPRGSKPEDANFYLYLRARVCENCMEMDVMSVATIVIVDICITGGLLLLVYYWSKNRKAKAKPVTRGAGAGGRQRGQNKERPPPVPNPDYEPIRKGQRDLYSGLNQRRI
Kind of assay: flow cytometry on human T cells gated CD4+, detection with anti-IgG-Fc, geo MFI. How it is done: (§2) Frozen human pan T cells or PBMCs were thawed and incubated with either media or serial dilutions of the anti-CD3 scFv-Fc constructs for one hour at 4° C. Commercially available SP34-2 antibody was used as positive controls while untreated cultures were used as negative controls. Following incubation with the anti-CD3 scFv constructs, the cells were washed and stained with a panel of conjugated antibodies specific for CD4, CD8, and IgG-Fc. The samples were acquired on a flow cytometer and analyzed using FlowJo version 10.1 software.
A general note: Flow cytometry measures light scatter and fluorescence of single cells or particles in a stream.

Assay [4] has as its target T2, human CD3 expressed on T cells (Jurkat …). Kind of assay: flow cytometry on human T cells. As to the method:
as §2

Assay [5] has the same target. Briefly: cell ELISA on CD3+ Jurkat cells. How it is done:
Cells were centrifuged and seeded in a 96-well filter plate in 50% complete culture medium/50% Blocking buffer. Equal volumes of 2× anti-CD3 scFv-Fc constructs or controls were added to cells and incubated for 1 hour. The plate was washed 4 times using vacuum filtration. An HRP-conjugated anti-human IgG Fc gamma specific secondary antibody was added to the wells and further incubated for 1 hour. The plate is washed 7 times by vacuum filtration followed by the addition of TMB substrate at room temperature. The reaction was stopped by adding 1 M sulfuric acid and supernatant was transferred into a clear 96-well plate. Absorbance (450 nm) was read on a Spectramax 340PC plate reader with path-check correction. Binding of the different scFv-Fc constructs to Jurkat cells and the apparent binding affinities are shown in FIG. 7 and Table 7, respectively.
For orientation: In an ELISA, binding on a coated surface is turned into a signal by an enzyme label.

The target in assay [6] is T3, cynomolgus monkey CD3 expressed on T cells (cynomolgus pan T cells/PBMC, HSC-F cell line) (cynomolgus monkey, UniProt Q95LI5 22-198).
T3 construct: whole, on cells; On T cells in the CD3 complex with the other subunits; only the epsilon chain is written out; also called cyno CD3; cyno T cells
T3 sequence (Q95LI5 22-198): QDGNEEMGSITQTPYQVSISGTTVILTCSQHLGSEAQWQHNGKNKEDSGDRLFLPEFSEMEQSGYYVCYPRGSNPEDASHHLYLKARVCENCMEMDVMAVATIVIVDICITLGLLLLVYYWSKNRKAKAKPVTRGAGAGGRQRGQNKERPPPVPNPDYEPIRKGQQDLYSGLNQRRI
Kind of assay: flow cytometry on cynomolgus T cells. As to the method:
Frozen Cynomolgus monkey PBMCs were thawed then washed with RPMI-1640 media. Pan T cells were then isolated from the PBMCs using a negative isolation kit (Miltenyi Biotec, San Diego, Calif.) as per the manufacturer's instructions. The pan T cells were incubated in media alone or media containing serial dilutions of the anti-CD3 scFv-Fc constructs for one hour at 4° C. Commercially available SP34-2 antibody was used as positive controls while untreated cultures were used as negative controls. Following incubation with the anti-CD3 scFv constructs, the cells were washed and stained with a panel of conjugated antibodies specific for CD4, CD8, and IgG-Fc. The samples were acquired on a flow cytometer and analyzed using FlowJo version 10.1 software.

The target of assay [7] is T4, human CD3 epsilon/delta expressed on transfected cells (hCD3epsilon-pcDNA3.1 and hCD3delta-pcDNA3.1 in … (human, UniProt P07766 23-207; P04234 22-171).
T4 construct: whole, on cells
T4 sequence (P07766 23-207, stated change not applied, chain 1 of 2): as the sequence (P07766 23-207) above
T4 sequence (P04234 22-171, stated change not applied, chain 2 of 2): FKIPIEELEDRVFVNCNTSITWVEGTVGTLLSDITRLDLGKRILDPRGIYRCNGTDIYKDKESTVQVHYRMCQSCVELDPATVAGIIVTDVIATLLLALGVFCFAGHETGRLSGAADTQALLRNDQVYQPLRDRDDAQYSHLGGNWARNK
Kind of assay: cell ELISA and flow cytometry on transfected cells, hybridoma supernatant.

In assay [8] the target is T5, monkey CD3 epsilon/delta expressed on transfected Lenti-X293T cells (cynoCD3epsilon-pcDNA3.1 and … (monkey, UniProt Q95LI5 22-198; Q95LI8 22-171).
T5 construct: whole, on cells
T5 sequence (Q95LI5 22-198, stated change not applied, chain 1 of 2): as the sequence (Q95LI5 22-198) above
T5 sequence (Q95LI8 22-171, stated change not applied, chain 2 of 2): as the sequence (P04234 22-171, stated change not applied, chain 2 of 2) above, with I5V, N15K, I20V, S32T, D33N, I34N, T64A, S74N, V83L, H141R counted along it
Briefly: flow cytometry on transfected Lenti-X293T cells, hybridoma supernatant. As to the method: Flow cytometry analysis of binding activity to monkey CD3. The monkey CD3 binding specificity of the antibody produced by each hybridoma determined to produce the antibody binding to human CD3 was further confirmed by flow cytometry. Each Lenti-X293T cell suspension was added at a concentration of 100 μL/well to a 96-well U-bottomed microplate and centrifuged to remove a supernatant. The cynoCD3c-pcDNA3.1- and cynoCD3δ-pcDNA3.1-transfected Lenti-X293T cells or the pcDNA3.1-DEST-transfected Lenti-X293T cells were suspended by the addition of the hybridoma culture supernatant and left standing at 4° C. for 1 hour. The cells were washed once with PBS containing 5% FBS, then suspended by the addition of Anti-Rat IgG FITC conjugate diluted 500-fold with PBS containing 5% FBS, and left standing at 4° C. for 30 minutes. The cells were washed twice with PBS containing 5% FBS and then resuspended in PBS containing 5% FBS and 2 μg/ml 7-aminoactinomycin D, followed by detection using a flow cytometer. The data was analyzed using Flowjo. After removal of 7-aminoactinomycin D-positive dead cells by gating, the FITC fluorescence intensity of live cells was plotted to a histogram.

T1 sequence (P07766 23-126, stated change not applied, chain 1 of 2): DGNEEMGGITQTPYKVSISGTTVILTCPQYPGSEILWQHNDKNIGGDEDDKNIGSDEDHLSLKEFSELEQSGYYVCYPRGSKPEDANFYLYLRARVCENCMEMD
T1 sequence (P04234 22-105, stated change not applied, chain 2 of 2): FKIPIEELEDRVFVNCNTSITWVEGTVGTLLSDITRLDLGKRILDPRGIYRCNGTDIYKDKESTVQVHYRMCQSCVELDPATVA

B1: variant 21831, monovalent anti-CD3 scFv-heterodimeric Fc (VL hC3E-1_1L1d, VH hC3E-1(N53S)) (Fc fusion)
scFv: EVQLVESGGGLVQPGGSLRLSCAASGVTFNYYGMSWIRQAPGKGLEWVASITSSGGRIYYPDSVKGRFTISRENTQKTLYLQMNSLRAEDTAVYYCTLDGRDGWVAYWGQGTLVTVSSGGGGSGGGGSGGGGSQVVLTQPPSASGTPGQRVTISCKRNTGNIGSNYVNWYQQLPGTAPKLLIYRDDKRPDGVPDRFSGSKSGTSASLAISGLQSEDEADYYCQSYSSGFIFGGGTKLTVL
notes: scFv order VH-(GGGGS)3-VL on Fc chain A; chain B is Fc only; also called v21831; not shown: Fc-only chain B is also left out
As for B1, the figures for the Kd in assay [1] and in assay [2] were 22.9 nM and 23 nM, respectively. For the same molecule, the koff (commonly the rate constant with which the complex falls apart) in assay [2] was found to be 0.0225 s⁻¹. For the same molecule, the kon (usually the second-order rate constant of association) in assay [2] stood at 977000 M⁻¹ s⁻¹. In assay [3], the concentration for a half-maximal effect (EC50 (read off the curve)) (in general, the concentration needed to bring the measured effect to its halfway point) was ~1 µg/mL. Further, the EC50 – broadly, the concentration at which the effect is half-maximal – in assay [4] was found to be 1 nM; in assay [5] it was 3.96 nM; in assay [6] it was 40.7 nM.

B2: rat anti-CD3 monoclonal antibody C3-147 (antibody, rat IgG2b, V domains shown)
VH: EVQLVESGGGLVQPGRALKLSCVVSGVTFNYYGMSWIRQAPGKGLEWVASITNSGGRIYYPDSVKGRFTISRENTQKTLYLQMNSLRSEDTATYYCTLDGRDGWVAYWGQGTLVTVSS
VL: QFVLTQPNSVSTNLGTTVELSCKRNTGNIGSNYVNWYQQHEGRSPTTIIYRDDKRPDGVSDRFSGSIDRSSKSALLTINNVQTEDEADYFCQSYSSGFIFGGGTKLTVL
notes: Rat IgG2b with lambda chains (printed 'X chains'); tested as hybridoma culture supernatant
With B2, the binding result in assay [7] and in assay [8] was “binds” in each case.
